Data as given in patent US10766952B2, “Methods for reducing migraine frequency in a subject in need thereof” (Beth Israel Deaconess Medical Center, Inc., priority 2017, dated 2020).

T1: human α-CGRP (Homo sapiens, UniProt P06881)
T1 construct: 1-37 (WT); purchased; host or cells: synthetic peptide
T1 sequence (P06881 83-119 limits assumed): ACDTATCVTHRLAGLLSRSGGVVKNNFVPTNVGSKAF

T2: rat α-CGRP (Rattus norvegicus, UniProt P01256)
T2 construct: rat α (1-37); host or cells: synthetic peptide
T2 sequence (P01256 83-119 limits assumed): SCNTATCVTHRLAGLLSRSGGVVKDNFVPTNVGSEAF


What was measured:
[1] = molecular target: T1, human α-CGRP; assay: Biacore affinity of antibody G1 Fab and variants to human α-CGRP; type: binding; conditions: 37° C., Fab, screening mode unless underlined
Description: (§1) Biacore assay for affinity determination. […] All Biacore assays were conducted in HBS-EP running buffer (10 mM HEPES pH 7.4, 150 mM NaCl, 3 mM EDTA, 0.005% v/v polysorbate P20). CGRP surfaces were prepared by diluting the N-biotinylated CGRP to a concentration of less than 0.001 mg/mL into HBS-EP buffer and injecting it across the SA sensor chip using variable contact times. Low capacity surfaces, corresponding to capture levels <50 response units (RU) were used for high-resolution kinetic studies, whereas high capacity surfaces (about 800 RU of captured CGRP) were used for concentration studies, screening, and solution affinity determinations. […] Samples were typically injected for lminute at 100 μL/min and dissociation times of at least 10 minutes were allowed. After each binding cycle, surfaces were regenerated with 25 mM NaOH in 25% v/v ethanol, which was tolerated over hundreds of cycles. An entire titration series (typically generated in duplicate) was fit globally to a 1:1 Langmuir binding model using the BlAevaluation program. This returned a unique pair of association and dissociation kinetic rate constants (respectively, kon and koff) for each binding interaction, whose ratio gave the equilibrium dissociation constant (KD=koff/[…]).
(§2) High-resolution analysis of binding interactions with extremely slow offrates. […] The protocol described above was used with the following modifications. The association rate constant (kon) was determined by injecting a 2-fold titration series (in duplicate) spanning 550 nM-1 nM for 30 seconds at 100 μL/min and allowing only a 30 second dissociation phase. The dissociation rate constant (koff) was determined by injecting three concentrations (high, medium, and low) of the same titration series in duplicate for 30 seconds and allowing a 2-hour dissociation phase. The affinity (KD) of each interaction was obtained by combining the kon and koff values obtained in both types of experiments, as shown in Table 4.
(§3) The binding affinities of Fab fragments were determined by Biacore by flowing them across CGRPs on a SA chip.

[2] = molecular target: T2, rat α-CGRP; assay: Biacore affinity of antibody G1 Fab and variants to rat α-CGRP; type: binding; conditions: 37° C., Fab, screening mode unless underlined
Description: as §1, §2, §3

α-human koff [1]	α-rat koff [2]	Molecule
0.00209 s⁻¹	0.0993 s⁻¹	M80: G1 variant: L1 R28N,T30S; L2 L56I; H2 E54K,A57N,S58V; HC-FW3 L99T,A100V (antibody, V domains shown) VH: EVQLVESGGGLVQPGGSLRLSCAASGFTFSNYWISWVRQAPGKGLEWVAEIRSKSDNVATHYAEAVKGRFTISRDNAKNSLYLQMNSLRAEDTAVYYCTVYFDYGLAIQNYWGQGTLVTVSS VL: EIVLTQSPATLSLSPGERATLSCKASKNVSTYVSWYQQKPGQAPRLLIYGASNRYIGIPARFSGSGSGTDFTLTISSLEPEDFAVYYCSQSYNYPYTFGQGTKLEIK
0.00129 s⁻¹	0.19 s⁻¹	M79: G1 variant: L1 R28N,T30S; L2 G50A,L56T; H2 E54K,A57P; HC-FW3 L99T,A100V (antibody, V domains shown) VH: EVQLVESGGGLVQPGGSLRLSCAASGFTFSNYWISWVRQAPGKGLEWVAEIRSKSDPSATHYAEAVKGRFTISRDNAKNSLYLQMNSLRAEDTAVYYCTVYFDYGLAIQNYWGQGTLVTVSS VL: EIVLTQSPATLSLSPGERATLSCKASKNVSTYVSWYQQKPGQAPRLLIYAASNRYTGIPARFSGSGSGTDFTLTISSLEPEDFAVYYCSQSYNYPYTFGQGTKLEIK
0.000364 s⁻¹	0.00116 s⁻¹	M76: G1 variant: L1 R28N,T30S; L2 G50A,L56T; H2 A57G; HC-FW3 L99T,A100V (antibody, V domains shown) VH: EVQLVESGGGLVQPGGSLRLSCAASGFTFSNYWISWVRQAPGKGLEWVAEIRSESDGSATHYAEAVKGRFTISRDNAKNSLYLQMNSLRAEDTAVYYCTVYFDYGLAIQNYWGQGTLVTVSS VL: EIVLTQSPATLSLSPGERATLSCKASKNVSTYVSWYQQKPGQAPRLLIYAASNRYTGIPARFSGSGSGTDFTLTISSLEPEDFAVYYCSQSYNYPYTFGQGTKLEIK
0.00131 s⁻¹	0.167 s⁻¹	M78: G1 variant: L1 R28N,T30S; L2 G50A,L56T; H2 E54K,A57N,S58T; HC-FW3 L99T,A100V (antibody, V domains shown) VH: EVQLVESGGGLVQPGGSLRLSCAASGFTFSNYWISWVRQAPGKGLEWVAEIRSKSDNTATHYAEAVKGRFTISRDNAKNSLYLQMNSLRAEDTAVYYCTVYFDYGLAIQNYWGQGTLVTVSS VL: EIVLTQSPATLSLSPGERATLSCKASKNVSTYVSWYQQKPGQAPRLLIYAASNRYTGIPARFSGSGSGTDFTLTISSLEPEDFAVYYCSQSYNYPYTFGQGTKLEIK
0.000477 s⁻¹	0.0143 s⁻¹	M77: G1 variant: L1 R28N,T30S; L2 G50A,L56T; H2 E54K,A57D; HC-FW3 L99T,A100V (antibody, V domains shown) VH: EVQLVESGGGLVQPGGSLRLSCAASGFTFSNYWISWVRQAPGKGLEWVAEIRSKSDDSATHYAEAVKGRFTISRDNAKNSLYLQMNSLRAEDTAVYYCTVYFDYGLAIQNYWGQGTLVTVSS VL: EIVLTQSPATLSLSPGERATLSCKASKNVSTYVSWYQQKPGQAPRLLIYAASNRYTGIPARFSGSGSGTDFTLTISSLEPEDFAVYYCSQSYNYPYTFGQGTKLEIK
0.00116 s⁻¹	0.0187 s⁻¹	M75: G1 variant: L1 R28N,T30G; L2 L56S; H2 E54K,A57V; HC-FW3 L99T,A100V (antibody, V domains shown) VH: EVQLVESGGGLVQPGGSLRLSCAASGFTFSNYWISWVRQAPGKGLEWVAEIRSKSDVSATHYAEAVKGRFTISRDNAKNSLYLQMNSLRAEDTAVYYCTVYFDYGLAIQNYWGQGTLVTVSS VL: EIVLTQSPATLSLSPGERATLSCKASKNVGTYVSWYQQKPGQAPRLLIYGASNRYSGIPARFSGSGSGTDFTLTISSLEPEDFAVYYCSQSYNYPYTFGQGTKLEIK

The next lines start with the molecule.

Molecule	α-human koff [1]	α-rat koff [2]
M68: G1 variant: L1 R28N,T30G; L2 L56I; H2 E54K,A57N,S58D,E64D; HC-FW3 L99T,A100V (antibody, V domains shown) VH: EVQLVESGGGLVQPGGSLRLSCAASGFTFSNYWISWVRQAPGKGLEWVAEIRSKSDNDATHYADAVKGRFTISRDNAKNSLYLQMNSLRAEDTAVYYCTVYFDYGLAIQNYWGQGTLVTVSS VL: EIVLTQSPATLSLSPGERATLSCKASKNVGTYVSWYQQKPGQAPRLLIYGASNRYIGIPARFSGSGSGTDFTLTISSLEPEDFAVYYCSQSYNYPYTFGQGTKLEIK	0.000428 s⁻¹	0.00676 s⁻¹
M73: G1 variant: L1 R28N,T30G; L2 L56S; H2 E54K,A57N,S58Y,E64D; HC-FW3 L99T,A100V (antibody, V domains shown) VH: EVQLVESGGGLVQPGGSLRLSCAASGFTFSNYWISWVRQAPGKGLEWVAEIRSKSDNYATHYADAVKGRFTISRDNAKNSLYLQMNSLRAEDTAVYYCTVYFDYGLAIQNYWGQGTLVTVSS VL: EIVLTQSPATLSLSPGERATLSCKASKNVGTYVSWYQQKPGQAPRLLIYGASNRYSGIPARFSGSGSGTDFTLTISSLEPEDFAVYYCSQSYNYPYTFGQGTKLEIK	0.000255 s⁻¹	0.003 s⁻¹
M71: G1 variant: L1 R28N,T30G; L2 L56I; H2 E54K,A57Y; HC-FW3 L99T,A100V (antibody, V domains shown) VH: EVQLVESGGGLVQPGGSLRLSCAASGFTFSNYWISWVRQAPGKGLEWVAEIRSKSDYSATHYAEAVKGRFTISRDNAKNSLYLQMNSLRAEDTAVYYCTVYFDYGLAIQNYWGQGTLVTVSS VL: EIVLTQSPATLSLSPGERATLSCKASKNVGTYVSWYQQKPGQAPRLLIYGASNRYIGIPARFSGSGSGTDFTLTISSLEPEDFAVYYCSQSYNYPYTFGQGTKLEIK	0.00128 s⁻¹	0.00212 s⁻¹
M74: G1 variant: L1 R28N,T30G; L2 L56S; H2 E54K,A57S; HC-FW3 L99T,A100V (antibody, V domains shown) VH: EVQLVESGGGLVQPGGSLRLSCAASGFTFSNYWISWVRQAPGKGLEWVAEIRSKSDSSATHYAEAVKGRFTISRDNAKNSLYLQMNSLRAEDTAVYYCTVYFDYGLAIQNYWGQGTLVTVSS VL: EIVLTQSPATLSLSPGERATLSCKASKNVGTYVSWYQQKPGQAPRLLIYGASNRYSGIPARFSGSGSGTDFTLTISSLEPEDFAVYYCSQSYNYPYTFGQGTKLEIK	0.000597 s⁻¹	0.00603 s⁻¹
M69: G1 variant: L1 R28N,T30G; L2 L56I; H2 E54K,A57N,S58E; HC-FW3 L99T,A100V (antibody, V domains shown) VH: EVQLVESGGGLVQPGGSLRLSCAASGFTFSNYWISWVRQAPGKGLEWVAEIRSKSDNEATHYAEAVKGRFTISRDNAKNSLYLQMNSLRAEDTAVYYCTVYFDYGLAIQNYWGQGTLVTVSS VL: EIVLTQSPATLSLSPGERATLSCKASKNVGTYVSWYQQKPGQAPRLLIYGASNRYIGIPARFSGSGSGTDFTLTISSLEPEDFAVYYCSQSYNYPYTFGQGTKLEIK	0.000733 s⁻¹	0.00181 s⁻¹
M70: G1 variant: L1 R28N,T30G; L2 L56I; H2 E54K,A57S; HC-FW3 L99T,A100V (antibody, V domains shown) VH: EVQLVESGGGLVQPGGSLRLSCAASGFTFSNYWISWVRQAPGKGLEWVAEIRSKSDSSATHYAEAVKGRFTISRDNAKNSLYLQMNSLRAEDTAVYYCTVYFDYGLAIQNYWGQGTLVTVSS VL: EIVLTQSPATLSLSPGERATLSCKASKNVGTYVSWYQQKPGQAPRLLIYGASNRYIGIPARFSGSGSGTDFTLTISSLEPEDFAVYYCSQSYNYPYTFGQGTKLEIK	0.000559 s⁻¹	0.00607 s⁻¹
M72: G1 variant: L1 R28N,T30G; L2 L56S; H2 E54K; HC-FW3 L99T,A100V (antibody, V domains shown) VH: EVQLVESGGGLVQPGGSLRLSCAASGFTFSNYWISWVRQAPGKGLEWVAEIRSKSDASATHYAEAVKGRFTISRDNAKNSLYLQMNSLRAEDTAVYYCTVYFDYGLAIQNYWGQGTLVTVSS VL: EIVLTQSPATLSLSPGERATLSCKASKNVGTYVSWYQQKPGQAPRLLIYGASNRYSGIPARFSGSGSGTDFTLTISSLEPEDFAVYYCSQSYNYPYTFGQGTKLEIK	0.0004 s⁻¹	0.00395 s⁻¹
